In test [1] the target is T1, human PCSK9 (proprotein convertase subtilisin/kexin type 9), His-tagged, full-length (human, UniProt A8T644 31-152; Q8NBP7 153-692, limits assumed).
T1 construct: The secreted protein is the prodomain plus the catalytic/Cys-rich part (N-terminus S153) after autocleavage; also called His-PCSK9; NARC-1
In words: TR-FRET competition vs EGF(A)-Fc on His-PCSK9. Background: In TR-FRET formats the signal depends on donor and acceptor labels being close together.

For test [2], the target named is T1, human PCSK9 (proprotein convertase …). In words: SPR, Biacore T100, His-tagged protein captured on NTA chip (Method 1). A general note: In SPR one partner is held on a chip, and binding of the other changes the refractive index at the surface.
Test [3] shares this target. Briefly: SPR, SensiQ Pioneer FE, amine-coupled protein, OneStep gradient injection (Method 3).
Test [4] shares this target. In words: TR-FRET competition vs EGF(A)-Fc on His-PCSK9. The source holds these as a separate data set.
Test [5] has the same target. Briefly: TR-FRET competition vs EGF(A)-Fc on His-PCSK9. The source holds these as a separate data set.
The target is the same in test [6]. Briefly: SPR, Biacore T100, NTA capture, single cycle kinetics (Method 2).
The target in test [7] is T2, PCSK9Δhelix (human, UniProt Q8NBP7 31-152).
T2 construct: domain: prodomain; Construct M1-Q692 with engineered TEV site, cut with TEV; His-tagged (tag not written as a part); also called His-PCSK9Δhelix; open groove PCSK9Δhelix
T2 sequence (Q8NBP7 31-152 limits assumed, stated change not applied, form in doubt, chain 1 of 2): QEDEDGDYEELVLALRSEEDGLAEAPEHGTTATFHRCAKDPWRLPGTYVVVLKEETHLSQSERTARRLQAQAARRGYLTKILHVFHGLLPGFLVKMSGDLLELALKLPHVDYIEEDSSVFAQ
T2 sequence (Q8NBP7 other isoform, or with tags, fused parts or gaps mutant limits assumed, form in doubt, chain 2 of 2): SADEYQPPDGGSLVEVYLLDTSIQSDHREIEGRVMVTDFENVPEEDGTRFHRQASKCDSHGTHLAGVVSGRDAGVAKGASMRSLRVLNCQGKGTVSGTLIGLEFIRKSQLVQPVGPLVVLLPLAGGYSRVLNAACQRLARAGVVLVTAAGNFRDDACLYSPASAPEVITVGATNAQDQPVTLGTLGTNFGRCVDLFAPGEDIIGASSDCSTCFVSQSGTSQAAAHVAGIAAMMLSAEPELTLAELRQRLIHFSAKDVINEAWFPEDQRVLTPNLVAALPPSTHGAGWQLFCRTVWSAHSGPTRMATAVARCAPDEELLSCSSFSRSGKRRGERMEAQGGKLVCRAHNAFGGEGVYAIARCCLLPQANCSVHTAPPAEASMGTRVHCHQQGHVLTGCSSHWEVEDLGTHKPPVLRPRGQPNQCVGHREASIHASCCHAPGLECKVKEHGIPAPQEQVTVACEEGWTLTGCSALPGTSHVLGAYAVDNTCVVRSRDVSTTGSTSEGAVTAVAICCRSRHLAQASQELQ
In words: TR-FRET competition, Ab20 as competitor.

Where two headings read alike, the source gives them in different places. Bridge positions count the residues as written; N and C are the ends. Square brackets hold non-standard residues; d marks the D form. * marks the point of attachment. 5FAM = O=C1OC2(c3ccc(O)cc3Oc3cc(O)ccc32)c2ccc(C(=O)*)cc21; Ach = 2-aminocyclohexane-1-carboxylic acid; hArg = N=C(N)NCCCC[C@H](N)C(=O)O; Dap = NC[C@H](N)C(=O)O; Pentanoyl = CCCCC(=O)*

T1 sequence (A8T644 31-152 limits assumed, chain 1 of 2): as the sequence (Q8NBP7 31-152 limits assumed, stated change not applied, form in doubt, chain 1 of 2) above
T1 sequence (A8T644 other isoform, or with tags, fused parts or gaps limits assumed, chain 2 of 2): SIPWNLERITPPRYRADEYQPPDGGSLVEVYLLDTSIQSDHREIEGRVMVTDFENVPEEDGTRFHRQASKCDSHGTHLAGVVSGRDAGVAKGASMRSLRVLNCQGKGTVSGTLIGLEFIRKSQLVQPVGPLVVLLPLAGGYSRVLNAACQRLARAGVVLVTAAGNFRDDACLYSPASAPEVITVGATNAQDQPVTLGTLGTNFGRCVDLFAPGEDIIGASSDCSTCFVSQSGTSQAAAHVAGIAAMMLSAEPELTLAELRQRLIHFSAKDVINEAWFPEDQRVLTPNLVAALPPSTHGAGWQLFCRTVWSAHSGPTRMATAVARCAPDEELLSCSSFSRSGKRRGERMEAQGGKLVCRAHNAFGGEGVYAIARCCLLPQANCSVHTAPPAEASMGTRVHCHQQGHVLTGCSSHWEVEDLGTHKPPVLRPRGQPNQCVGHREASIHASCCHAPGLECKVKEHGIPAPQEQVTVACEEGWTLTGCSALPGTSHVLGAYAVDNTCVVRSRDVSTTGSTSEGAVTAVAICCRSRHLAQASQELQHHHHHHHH

For orientation: IC50 means the concentration at which inhibition is half-maximal. A high value points to a need for much substance. The term Kd denotes the constant that tells how readily two partners part at equilibrium. In turn, Ac-TVFTSWEEYLDWVGSGCRLPWNLQRIGLPC-NH2 (disulfide 17-30 (inferred), also called Pep2-8p4; Pep2-8_K9gvpep4) [Compound 19] showed an IC50 in test [1] of 0.009 µM. In addition, binding in test [2] was put at a Kd of 0.00207 µM.

B1: Compound 97 (peptide)
peptide: Ac-GSGCWNL[Dap]RIGSQGC-NH2
modifications: disulfide 4-15
SMILES: CC[C@H](C)[C@@H]1NC(=O)[C@H](CCCNC(=N)N)NC(=O)[C@H](CN)NC(=O)[C@H](CC(C)C)NC(=O)[C@H](CC(N)=O)NC(=O)[C@H](Cc2c[nH]c3ccccc23)NC(=O)[C@@H](NC(=O)CNC(=O)[C@H](CO)NC(=O)CNC(C)=O)CSSC[C@@H](C(N)=O)NC(=O)CNC(=O)[C@H](CCC(N)=O)NC(=O)[C@H](CO)NC(=O)CNC1=O
notes: also called Ac-GSG-CWNL(Dpr)RIGSQGC-NH2
B1: the Kd in test [3] turned out to be 522 µM. Turning to 5FAM-SGSGCFIPWNLQRIGLLC-NH2 (disulfide 5-18 (inferred)) [Compound 33], the Kd in test [3] is 6.01 µM. Ac-TVFTSWEEYLDWVGSGDLMPWNLVRIGLLR-NH2 (also called Pep2-8p7; Pep2-8_K9gvpep7) [Compound 20] had a Kd in test [2] of 0.00556 µM. Further, in test [4], the IC50 was 0.037 µM. Ac-MPWNLVRIGLLR-NH2 [Compound 51]: the IC50 in test [5] was above 50 µM. The same molecule returned a Kd in test [3] of 26.2 µM. On to Ac-CRLPWNLQRIGLPC-NH2 (disulfide 1-14 (inferred)) [Compound 32], for which the Kd in test [3] came to 1.3 µM.

B2: Compound 73 (peptide)
peptide: Ac-CRLPWNLARIGLPC-NH2
modifications: disulfide 1-14
SMILES: CC[C@H](C)[C@@H]1NC(=O)[C@H](CCCNC(=N)N)NC(=O)[C@H](C)NC(=O)[C@H](CC(C)C)NC(=O)[C@H](CC(N)=O)NC(=O)[C@H](Cc2c[nH]c3ccccc23)NC(=O)[C@@H]2CCCN2C(=O)[C@H](CC(C)C)NC(=O)[C@H](CCCNC(=N)N)NC(=O)[C@@H](NC(C)=O)CSSC[C@@H](C(N)=O)NC(=O)[C@@H]2CCCN2C(=O)[C@H](CC(C)C)NC(=O)CNC1=O
Regarding B2, binding in test [3] was characterised by a dissociation constant (Kd) of 11 µM.

Take Ac-TVFTSWEEYLDWVGSGKLWNL-NH2 [Compound 6]: the IC50 in test [4] was found to be 0.74 µM.

As for 5FAM-SGSGCRLPWNLQRIGLPC-NH2 (disulfide 5-18 (inferred)) [Compound 34], the Kd in test [3] worked out at 4.47 µM. In test [4], Ac-TVFTSWEEYLDWVGSGKLWNLGRV-NH2 [Compound 1] showed an IC50 of 0.388 µM. In test [5], Ac-PWNLVRIGLLR-NH2 [Compound 52] registered an IC50 above 50 µM. Moreover, in test [3], the affinity, expressed as Kd, was 17.9 µM. Ac-SPCRVGYTPC-NH2 (disulfide 3-10 (inferred)) [Compound 23] had a Kd in test [6] of 5.74 µM. This counts as single-digit micromolar.

B3: Compound 96 (peptide)
peptide: Ac-FCLWNLKRIGAQCWF-NH2
modifications: disulfide 2-13
SMILES: CC[C@H](C)[C@@H]1NC(=O)[C@H](CCCNC(=N)N)NC(=O)[C@H](CCCCN)NC(=O)[C@H](CC(C)C)NC(=O)[C@H](CC(N)=O)NC(=O)[C@H](Cc2c[nH]c3ccccc23)NC(=O)[C@H](CC(C)C)NC(=O)[C@@H](NC(=O)[C@H](Cc2ccccc2)NC(C)=O)CSSC[C@@H](C(=O)N[C@@H](Cc2c[nH]c3ccccc23)C(=O)N[C@@H](Cc2ccccc2)C(N)=O)NC(=O)[C@H](CCC(N)=O)NC(=O)[C@H](C)NC(=O)CNC1=O
On to B3, for which, in test [3], the affinity, expressed as Kd, was 46.4 µM. In other words, the double-digit micromolar range. Take Ac-ALMPWNLVRIGLLR-NH2 [Compound 45]: the IC50 in test [5] is above 50 µM. The Kd in test [3] came out at 117 µM. Take Ac-DLMPWNLVRIGLAR-NH2 [Compound 55]: the IC50 in test [5] is above 50 µM. Moreover, the Kd in test [3] was 96.5 µM.

B4: Compound 229 (peptide)
peptide: Ac-MESFPGWNLV[hArg]IGLLR-NH2
SMILES: CC[C@H](C)[C@H](NC(=O)[C@H](CCCCNC(=N)N)NC(=O)[C@@H](NC(=O)[C@H](CC(C)C)NC(=O)[C@H](CC(N)=O)NC(=O)[C@H](Cc1c[nH]c2ccccc12)NC(=O)CNC(=O)[C@@H]1CCCN1C(=O)[C@H](Cc1ccccc1)NC(=O)[C@H](CO)NC(=O)[C@H](CCC(=O)O)NC(=O)[C@H](CCSC)NC(C)=O)C(C)C)C(=O)NCC(=O)N[C@@H](CC(C)C)C(=O)N[C@@H](CC(C)C)C(=O)N[C@@H](CCCNC(=N)N)C(N)=O
For B4, the “fold improvement of affinity against Compound 192” value in test [7] was above 6 fold.

In test [1], Ac-TVFTSWEEYLDWVGGSGCWNLKRIGSQGC-NH2 (disulfide 18-29 (inferred)) [Compound 13] displayed an IC50 of 0.01 µM. For Ac-TVFTSWEEYLDWVGSGGCWNLKRIGSQGC-NH2 (disulfide 18-29 (inferred)) [Compound 14], in test [1], the IC50 stood at 0.009 µM.

Regarding Ac-TVFTSWEEYLDWVGSGCWNLGRIGSQGC-NH2 (disulfide 17-28 (inferred)) [Compound 11], the IC50 in test [1] was determined as 0.34 µM. The same measure, in the same setting: the result for Ac-TVFTSWEEYLDWVGSGCWNLKRVGSQGC-NH2 (disulfide 17-28 (inferred)) [Compound 12] reads 0.19 µM. Turning to Ac-LMPWNLVRIGLLR-NH2 [Compound 50], the IC50 in test [5] was above 50 µM. The molecule also yielded a Kd in test [3] of 16.1 µM. In turn, Ac-TVFTSWEEYLDWVGSGKLWNLGR-NH2 [Compound 4] returned an IC50 in test [4] of 0.49 µM.

B5: Compound 112 (peptide)
peptide: Pentanoyl-WNLVRIGLTR-NH2
SMILES: CCCCC(=O)N[C@@H](Cc1c[nH]c2ccccc12)C(=O)N[C@@H](CC(N)=O)C(=O)N[C@@H](CC(C)C)C(=O)N[C@H](C(=O)N[C@@H](CCCNC(=N)N)C(=O)N[C@H](C(=O)NCC(=O)N[C@@H](CC(C)C)C(=O)N[C@H](C(=O)N[C@@H](CCCNC(=N)N)C(N)=O)[C@@H](C)O)[C@@H](C)CC)C(C)C
In test [7], B5 came in with an IC50 below 10 µM. Ac-TVFTSWEEYLDWVGSGKLWN-NH2 [Compound 7]: in test [4], the IC50 came out at 0.5 µM. In the case of Ac-CRL[Ach]WNLQRIGLPC-NH2 (disulfide 1-14) [Compound 82], the Kd in test [3] worked out at 118 µM.

In test [5], Ac-WNLVRIGLLR-NH2 [Compound 53] gave an IC50 above 50 µM. Further, binding in test [3] was put at a Kd of 223 µM.

In turn, H-SGCFIPWNLQRIGLLC-NH2 (disulfide 3-16 (inferred)) [Compound 26] returned a Kd in test [2] of 29 µM. For Ac-TVFTSWEEYLDWVGGSGKLWNLGRV-NH2 [Compound 8], in test [4], the IC50 is 1.03 µM.

In test [4], Ac-TVFTSWEEYLDWVGSGGKLWNLGRV-NH2 [Compound 9] yielded an IC50 of 0.39 µM.

In turn, Ac-TVFTSWEEYLDWVGSGGCRLPWNLQRIGLPC-NH2 (disulfide 18-31 (inferred)) [Compound 25] gave an IC50 in test [1] of 0.781 µM.

For the molecule Ac-TVFTSWEEYLDWVGSGGCFLPWNLQRIGLLC-NH2 (disulfide 18-31 (inferred)) [Compound 38], the IC50 in test [1] is 0.471 µM. Against the preceding molecule, the IC50 is about 1.7-fold lower.

Ac-TVFTSWEEYLDWVGSGKLWNLG-NH2 [Compound 5]: the IC50 in test [4] was 0.72 µM. In other words, the sub-micromolar range.

B6: Compound 28 (peptide)
peptide: SGDLMPWNLVRIGLLR
notes: Printed without N-terminal cap and without C-terminal amide
B6 had a Kd in test [2] of 46.1 µM. This lies in the double-digit micromolar range.

Source of the values: US20190177366A1 (published 2019).
